# * marks the point of attachment. Palmitoyl = CCCCCCCCCCCCCCCC(=O)*
# B1: Compound 46 (peptide)
# peptide: Palmitoyl-VLATKLRETNAGRSDTRQQ-NH2
# SMILES: CCCCCCCCCCCCCCCC(=O)N[C@H](C(=O)N[C@@H](CC(C)C)C(=O)N[C@@H](C)C(=O)N[C@H](C(=O)N[C@@H](CCCCN)C(=O)N[C@@H](CC(C)C)C(=O)N[C@@H](CCCNC(=N)N)C(=O)N[C@@H](CCC(=O)O)C(=O)N[C@H](C(=O)N[C@@H](CC(N)=O)C(=O)N[C@@H](C)C(=O)NCC(=O)N[C@@H](CCCNC(=N)N)C(=O)N[C@@H](CO)C(=O)N[C@@H](CC(=O)O)C(=O)N[C@H](C(=O)N[C@@H](CCCNC(=N)N)C(=O)N[C@@H](CCC(N)=O)C(=O)N[C@@H](CCC(N)=O)C(N)=O)[C@@H](C)O)[C@@H](C)O)[C@@H](C)O)C(C)C
# B2: Compound 95 (peptide)
# peptide: Palmitoyl-AGRSDTRQQYRKLLFS-NH2
# SMILES: CCCCCCCCCCCCCCCC(=O)N[C@@H](C)C(=O)NCC(=O)N[C@@H](CCCNC(=N)N)C(=O)N[C@@H](CO)C(=O)N[C@@H](CC(=O)O)C(=O)N[C@H](C(=O)N[C@@H](CCCNC(=N)N)C(=O)N[C@@H](CCC(N)=O)C(=O)N[C@@H](CCC(N)=O)C(=O)N[C@@H](Cc1ccc(O)cc1)C(=O)N[C@@H](CCCNC(=N)N)C(=O)N[C@@H](CCCCN)C(=O)N[C@@H](CC(C)C)C(=O)N[C@@H](CC(C)C)C(=O)N[C@@H](Cc1ccccc1)C(=O)N[C@@H](CO)C(N)=O)[C@@H](C)O
# B3: Compound 91 (peptide)
# peptide: Palmitoyl-TNAGRSDTRQQYAKLL-NH2
# SMILES: CCCCCCCCCCCCCCCC(=O)N[C@H](C(=O)N[C@@H](CC(N)=O)C(=O)N[C@@H](C)C(=O)NCC(=O)N[C@@H](CCCNC(=N)N)C(=O)N[C@@H](CO)C(=O)N[C@@H](CC(=O)O)C(=O)N[C@H](C(=O)N[C@@H](CCCNC(=N)N)C(=O)N[C@@H](CCC(N)=O)C(=O)N[C@@H](CCC(N)=O)C(=O)N[C@@H](Cc1ccc(O)cc1)C(=O)N[C@@H](C)C(=O)N[C@@H](CCCCN)C(=O)N[C@@H](CC(C)C)C(=O)N[C@@H](CC(C)C)C(N)=O)[C@@H](C)O)[C@@H](C)O
# B4: Compound 45 (peptide)
# peptide: Palmitoyl-VRVLATKLRETNAGRSDTR-NH2
# SMILES: CCCCCCCCCCCCCCCC(=O)N[C@H](C(=O)N[C@@H](CCCNC(=N)N)C(=O)N[C@H](C(=O)N[C@@H](CC(C)C)C(=O)N[C@@H](C)C(=O)N[C@H](C(=O)N[C@@H](CCCCN)C(=O)N[C@@H](CC(C)C)C(=O)N[C@@H](CCCNC(=N)N)C(=O)N[C@@H](CCC(=O)O)C(=O)N[C@H](C(=O)N[C@@H](CC(N)=O)C(=O)N[C@@H](C)C(=O)NCC(=O)N[C@@H](CCCNC(=N)N)C(=O)N[C@@H](CO)C(=O)N[C@@H](CC(=O)O)C(=O)N[C@H](C(=O)N[C@@H](CCCNC(=N)N)C(N)=O)[C@@H](C)O)[C@@H](C)O)[C@@H](C)O)C(C)C)C(C)C
# B5: Compound 44 (peptide)
# peptide: Palmitoyl-NIVRVLATKLRETNAGRSD-NH2
# SMILES: CCCCCCCCCCCCCCCC(=O)N[C@@H](CC(N)=O)C(=O)N[C@H](C(=O)N[C@H](C(=O)N[C@@H](CCCNC(=N)N)C(=O)N[C@H](C(=O)N[C@@H](CC(C)C)C(=O)N[C@@H](C)C(=O)N[C@H](C(=O)N[C@@H](CCCCN)C(=O)N[C@@H](CC(C)C)C(=O)N[C@@H](CCCNC(=N)N)C(=O)N[C@@H](CCC(=O)O)C(=O)N[C@H](C(=O)N[C@@H](CC(N)=O)C(=O)N[C@@H](C)C(=O)NCC(=O)N[C@@H](CCCNC(=N)N)C(=O)N[C@@H](CO)C(=O)N[C@@H](CC(=O)O)C(N)=O)[C@@H](C)O)[C@@H](C)O)C(C)C)C(C)C)[C@@H](C)CC
# B6: Compound 92 (peptide)
# peptide: Palmitoyl-TNAGRSDTRQQARKLL-NH2
# SMILES: CCCCCCCCCCCCCCCC(=O)N[C@H](C(=O)N[C@@H](CC(N)=O)C(=O)N[C@@H](C)C(=O)NCC(=O)N[C@@H](CCCNC(=N)N)C(=O)N[C@@H](CO)C(=O)N[C@@H](CC(=O)O)C(=O)N[C@H](C(=O)N[C@@H](CCCNC(=N)N)C(=O)N[C@@H](CCC(N)=O)C(=O)N[C@@H](CCC(N)=O)C(=O)N[C@@H](C)C(=O)N[C@@H](CCCNC(=N)N)C(=O)N[C@@H](CCCCN)C(=O)N[C@@H](CC(C)C)C(=O)N[C@@H](CC(C)C)C(N)=O)[C@@H](C)O)[C@@H](C)O
# B7: Compound 36 (peptide)
# peptide: Palmitoyl-HSLIFMAFFSEKKYLWGFT-NH2
# SMILES: CCCCCCCCCCCCCCCC(=O)N[C@@H](Cc1c[nH]cn1)C(=O)N[C@@H](CO)C(=O)N[C@@H](CC(C)C)C(=O)N[C@H](C(=O)N[C@@H](Cc1ccccc1)C(=O)N[C@@H](CCSC)C(=O)N[C@@H](C)C(=O)N[C@@H](Cc1ccccc1)C(=O)N[C@@H](Cc1ccccc1)C(=O)N[C@@H](CO)C(=O)N[C@@H](CCC(=O)O)C(=O)N[C@@H](CCCCN)C(=O)N[C@@H](CCCCN)C(=O)N[C@@H](Cc1ccc(O)cc1)C(=O)N[C@@H](CC(C)C)C(=O)N[C@@H](Cc1c[nH]c2ccccc12)C(=O)NCC(=O)N[C@@H](Cc1ccccc1)C(=O)N[C@H](C(N)=O)[C@@H](C)O)[C@@H](C)CC
# B8: Compound 1 (peptide)
# peptide: Palmitoyl-RRLHSTRNYIHMH-NH2
# SMILES: CCCCCCCCCCCCCCCC(=O)N[C@@H](CCCNC(=N)N)C(=O)N[C@@H](CCCNC(=N)N)C(=O)N[C@@H](CC(C)C)C(=O)N[C@@H](Cc1c[nH]cn1)C(=O)N[C@@H](CO)C(=O)N[C@H](C(=O)N[C@@H](CCCNC(=N)N)C(=O)N[C@@H](CC(N)=O)C(=O)N[C@@H](Cc1ccc(O)cc1)C(=O)N[C@H](C(=O)N[C@@H](Cc1c[nH]cn1)C(=O)N[C@@H](CCSC)C(=O)N[C@@H](Cc1c[nH]cn1)C(N)=O)[C@@H](C)CC)[C@@H](C)O
# B9: Compound 48 (peptide)
# peptide: Palmitoyl-RETNAGRSDTRQQRKLLKS-NH2
# SMILES: CCCCCCCCCCCCCCCC(=O)N[C@@H](CCCNC(=N)N)C(=O)N[C@@H](CCC(=O)O)C(=O)N[C@H](C(=O)N[C@@H](CC(N)=O)C(=O)N[C@@H](C)C(=O)NCC(=O)N[C@@H](CCCNC(=N)N)C(=O)N[C@@H](CO)C(=O)N[C@@H](CC(=O)O)C(=O)N[C@H](C(=O)N[C@@H](CCCNC(=N)N)C(=O)N[C@@H](CCC(N)=O)C(=O)N[C@@H](CCC(N)=O)C(=O)N[C@@H](CCCNC(=N)N)C(=O)N[C@@H](CCCCN)C(=O)N[C@@H](CC(C)C)C(=O)N[C@@H](CC(C)C)C(=O)N[C@@H](CCCCN)C(=O)N[C@@H](CO)C(N)=O)[C@@H](C)O)[C@@H](C)O
# B10: Compound 35 (peptide)
# peptide: Palmitoyl-YLHSLIFMAFFSEKKYLWGFT-NH2
# SMILES: CCCCCCCCCCCCCCCC(=O)N[C@@H](Cc1ccc(O)cc1)C(=O)N[C@@H](CC(C)C)C(=O)N[C@@H](Cc1c[nH]cn1)C(=O)N[C@@H](CO)C(=O)N[C@@H](CC(C)C)C(=O)N[C@H](C(=O)N[C@@H](Cc1ccccc1)C(=O)N[C@@H](CCSC)C(=O)N[C@@H](C)C(=O)N[C@@H](Cc1ccccc1)C(=O)N[C@@H](Cc1ccccc1)C(=O)N[C@@H](CO)C(=O)N[C@@H](CCC(=O)O)C(=O)N[C@@H](CCCCN)C(=O)N[C@@H](CCCCN)C(=O)N[C@@H](Cc1ccc(O)cc1)C(=O)N[C@@H](CC(C)C)C(=O)N[C@@H](Cc1c[nH]c2ccccc12)C(=O)NCC(=O)N[C@@H](Cc1ccccc1)C(=O)N[C@H](C(N)=O)[C@@H](C)O)[C@@H](C)CC
# B11: Compound 47 (peptide)
# peptide: Palmitoyl-KLRETNAGRSDTRQQRKLL-NH2
# SMILES: CCCCCCCCCCCCCCCC(=O)N[C@@H](CCCCN)C(=O)N[C@@H](CC(C)C)C(=O)N[C@@H](CCCNC(=N)N)C(=O)N[C@@H](CCC(=O)O)C(=O)N[C@H](C(=O)N[C@@H](CC(N)=O)C(=O)N[C@@H](C)C(=O)NCC(=O)N[C@@H](CCCNC(=N)N)C(=O)N[C@@H](CO)C(=O)N[C@@H](CC(=O)O)C(=O)N[C@H](C(=O)N[C@@H](CCCNC(=N)N)C(=O)N[C@@H](CCC(N)=O)C(=O)N[C@@H](CCC(N)=O)C(=O)N[C@@H](CCCNC(=N)N)C(=O)N[C@@H](CCCCN)C(=O)N[C@@H](CC(C)C)C(=O)N[C@@H](CC(C)C)C(N)=O)[C@@H](C)O)[C@@H](C)O
# B12: Compound 94 (peptide)
# peptide: Palmitoyl-AGRSDTRQQYRKLLFA-NH2
# SMILES: CCCCCCCCCCCCCCCC(=O)N[C@@H](C)C(=O)NCC(=O)N[C@@H](CCCNC(=N)N)C(=O)N[C@@H](CO)C(=O)N[C@@H](CC(=O)O)C(=O)N[C@H](C(=O)N[C@@H](CCCNC(=N)N)C(=O)N[C@@H](CCC(N)=O)C(=O)N[C@@H](CCC(N)=O)C(=O)N[C@@H](Cc1ccc(O)cc1)C(=O)N[C@@H](CCCNC(=N)N)C(=O)N[C@@H](CCCCN)C(=O)N[C@@H](CC(C)C)C(=O)N[C@@H](CC(C)C)C(=O)N[C@@H](Cc1ccccc1)C(=O)N[C@@H](C)C(N)=O)[C@@H](C)O
# B13: Compound 93 (peptide)
# peptide: Palmitoyl-TNAGRSDTRQAYRKLL-NH2
# SMILES: CCCCCCCCCCCCCCCC(=O)N[C@H](C(=O)N[C@@H](CC(N)=O)C(=O)N[C@@H](C)C(=O)NCC(=O)N[C@@H](CCCNC(=N)N)C(=O)N[C@@H](CO)C(=O)N[C@@H](CC(=O)O)C(=O)N[C@H](C(=O)N[C@@H](CCCNC(=N)N)C(=O)N[C@@H](CCC(N)=O)C(=O)N[C@@H](C)C(=O)N[C@@H](Cc1ccc(O)cc1)C(=O)N[C@@H](CCCNC(=N)N)C(=O)N[C@@H](CCCCN)C(=O)N[C@@H](CC(C)C)C(=O)N[C@@H](CC(C)C)C(N)=O)[C@@H](C)O)[C@@H](C)O
# Molecular target: PTHR1 receptor
# Sequence (P25961 whole entry): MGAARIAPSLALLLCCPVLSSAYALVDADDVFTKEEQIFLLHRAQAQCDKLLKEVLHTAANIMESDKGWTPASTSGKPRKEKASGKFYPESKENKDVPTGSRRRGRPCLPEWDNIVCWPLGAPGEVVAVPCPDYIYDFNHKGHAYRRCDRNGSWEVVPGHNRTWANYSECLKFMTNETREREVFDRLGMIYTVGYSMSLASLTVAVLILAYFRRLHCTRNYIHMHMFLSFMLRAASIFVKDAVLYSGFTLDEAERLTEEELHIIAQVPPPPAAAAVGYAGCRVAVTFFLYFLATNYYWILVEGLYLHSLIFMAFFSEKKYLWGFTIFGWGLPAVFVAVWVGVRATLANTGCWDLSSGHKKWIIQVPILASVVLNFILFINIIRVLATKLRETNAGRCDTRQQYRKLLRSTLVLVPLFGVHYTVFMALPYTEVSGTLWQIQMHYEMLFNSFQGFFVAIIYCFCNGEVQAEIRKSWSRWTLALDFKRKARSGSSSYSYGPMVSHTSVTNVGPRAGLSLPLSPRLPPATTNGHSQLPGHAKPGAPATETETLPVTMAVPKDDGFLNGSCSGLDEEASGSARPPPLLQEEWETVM
Fold Shift of EC50,Inhibition of Maximal Response,Binder
0.9 fold,20.3%,B1
19 fold,-5.7%,B2
2 fold,9.8%,B3
1.4 fold,9.1%,B4
2 fold,-8.3%,B5
5 fold,8.3%,B6
1.2 fold,5.9%,B7
1.3 fold,5.5%,B8
7 fold,-3.3%,B9
1.1 fold,24.5%,B10
2.7 fold,8.3%,B11
18.7 fold,-24.4%,B12
13.4 fold,-67%,B13

# Reference: US20110294738A1, “PTHR1 RECEPTOR COMPOUNDS” (priority 2008, published 2011)
